Laboratory results as given in patent publication US10947270B2, “Targeted prodrug cytosine deaminase fusion carrier and application thereof” (National Yang-Ming University, priority 2015, dated 2021).
Where “and” joins values, the source holds several entries; their conditions need not be identical. Identical values can stand only once. Like-named read-outs stand apart in the source and are kept apart here.

Assays:
[1] = Enzyme kinetic analysis of EcCD series fusion proteins, substrate 5-FC; type: biochemical; conditions: for Kcat/Km higher than that of the corresponding WT protein: substrate 5-FC
Source text: (§1) FIGS. 11A-11D show the activity and kinetics analysis of EcCD series fusion protein enzymes, and the EcCD series proteins are combined with 5-FC at different concentrations for reaction. Respectively calculate the 5-FU formation reaction rate shown in FIG. 11A, 5-FC consumption reaction rate shown in FIG. 10B, uracil formation reaction rate shown in FIG. 10C and cytosine consumption reaction rate shown in FIG. 10D, substitute Michaelis-Menten formula, and calculate the base mass (Kcat) and Km value catalyzed by each mol enzyme in unit time.

[2] = Enzyme kinetic analysis of EcCD series fusion proteins, substrate cytosine; type: biochemical; conditions: for Kcat/Km lower than that of the corresponding WT protein: substrate cytosine
Source text: as §1, with “time. […]” for “time.”

[3] = Relative substrate selectivity of cytosine deaminase enzyme for 5-FC and cytosine (formula 1); type: biochemical; conditions: for [Kcat/Km(5-FC)]/{[Kcat/Km(cytosine)] + [Kcat/Km(5-FC)]}: relative substrate selectivity to 5-FC
Source text: Evaluation of the relative substrate selectivity of cytosine deaminase enzyme for 5-FC and Cytosine can be expressed by the following formula 1,
The higher the value, the higher the selectivity of the enzyme to the 5-FC substrate.

[4] = test system: U87MG, HUVEC and MCF-7 cells; experiment: Immunofluorescence of binding and distribution of EcCD fusion proteins in cells; type: cell-based, human; conditions: 37° C., 2 hours
Method: FIGS. 15A-15C show the binding and distribution of EcCD fusion proteins in U87MG, HUVEC and MCF-7 cell strain. The immunofluorescence staining is used to observe and experiment the EcCD fusion protein, which are respectively acted with U87MG cells in FIG. 15A, HUVEC cells in FIG. 15B and MCF-7 cells in FIG. 15C for 2 hours at 37° C., then fixed with 2% para-formadehyde, the fixed cells are first permeabilized with 0.1% Triton X-100 for 10 minutes, after that, cultured with 1% BSA blocking (dissolved in PBS containing Ca^2+, Mg^2+) for 1 hour at room temperature, then add a 1st antibody (Rabbit anti-His^6tag, Mouse anti-human CD51/61αvβ3 integrin), and then add a 2nd antibody (Anti-rabbit IgG-CF640R, Anti-mouse IgG-Alexa488), the protein distribution is observed by conjugated fluorescence microscope. (Green signal: αvβ3 integrin; red signal: anti-His^6tag; blue signal: Hoechst 33342 cell nucleus stain) (Scale bars: 20 μm)
Immunofluorescence is used to observe the distribution of the protein bound with cell in the cell. U87MG, HUVEC and MCF-7 cells act with culture medium containing EcCD_WT, RGD4C-EcCD_WT, EcCD_D314A and RGD4C-EcCD_D314A proteins at 37° C. for 2 hours, stain the cell, and observe protein distribution by the conjugated fluorescence microscopy.

[5] = literature, Biochemistry 2004, 43, 8957-8964; cited from earlier work
αvβ3 integrin = αvβ3 integrin (Homo sapiens, UniProt P05106+P06756); experiment: ELISA binding of EcCD series fusion protein and αvβ3 integrin
Source text: FIGS. 13A-13B show the binding activity and specificity test of EcCD fusion protein and αvβ3 integrin receptor. […] (***compared with untreated RGDfv group, P value<0.001, indicating a statistically significant difference)
To confirm the binding ability of RGD4C peptide and αvβ3 integrin, the affinity of the protein and αvβ3 integrin is confirmed by ELISA method. […] This experiment confirms that RGD4C-EcCD_WT and RGD4C-EcCD_D314A have the binding activity of αvβ3 integrin, and this binding has the specificity of RGD4C peptide αvβ3 integrin.

U87MG, HUVEC cells = experiment: RGDfv peptide competition of EcCD fusion protein binding to cells; type: cell-based, human; conditions: RGDfv peptide at 10-fold relative concentration
Method: FIGS. 14A-14E show the binding activity and specificity test of EcCD fusion protein and U87MG, HUVEC and MCF-7 cell strain. […] (***compared to the untreated RGDfv group, P value<0.001, indicating a statistically significant difference)
It is confirmed from the above experimental results that the EcCD series protein fused to the RGD4C peptide has the binding activity with the expressing αvβ3 integrin cell strain, and the binding has the specificity of the RGD4C peptide and αvβ3 integrin of the cell expression, and also confirmed that the D314A mutation will not affect the binding activity of the RGD4C peptide and αvβ3 integrin.

[6] = 5-FC consumption (Table 5), listed as RGD4C-EcCDWT
[7] = 5-FU generation, listed as RGD4C-EcCDWT
[8] = cytosine consumption, listed as RGD4C-EcCDWT
[9] = uracil generation, listed as RGD4C-EcCDWT
[10] = RGDfv peptide at 10-fold concentration
[11] = RGDfv peptide at same concentration

Chain of αvβ3 integrin (P06756 31-889 limits assumed): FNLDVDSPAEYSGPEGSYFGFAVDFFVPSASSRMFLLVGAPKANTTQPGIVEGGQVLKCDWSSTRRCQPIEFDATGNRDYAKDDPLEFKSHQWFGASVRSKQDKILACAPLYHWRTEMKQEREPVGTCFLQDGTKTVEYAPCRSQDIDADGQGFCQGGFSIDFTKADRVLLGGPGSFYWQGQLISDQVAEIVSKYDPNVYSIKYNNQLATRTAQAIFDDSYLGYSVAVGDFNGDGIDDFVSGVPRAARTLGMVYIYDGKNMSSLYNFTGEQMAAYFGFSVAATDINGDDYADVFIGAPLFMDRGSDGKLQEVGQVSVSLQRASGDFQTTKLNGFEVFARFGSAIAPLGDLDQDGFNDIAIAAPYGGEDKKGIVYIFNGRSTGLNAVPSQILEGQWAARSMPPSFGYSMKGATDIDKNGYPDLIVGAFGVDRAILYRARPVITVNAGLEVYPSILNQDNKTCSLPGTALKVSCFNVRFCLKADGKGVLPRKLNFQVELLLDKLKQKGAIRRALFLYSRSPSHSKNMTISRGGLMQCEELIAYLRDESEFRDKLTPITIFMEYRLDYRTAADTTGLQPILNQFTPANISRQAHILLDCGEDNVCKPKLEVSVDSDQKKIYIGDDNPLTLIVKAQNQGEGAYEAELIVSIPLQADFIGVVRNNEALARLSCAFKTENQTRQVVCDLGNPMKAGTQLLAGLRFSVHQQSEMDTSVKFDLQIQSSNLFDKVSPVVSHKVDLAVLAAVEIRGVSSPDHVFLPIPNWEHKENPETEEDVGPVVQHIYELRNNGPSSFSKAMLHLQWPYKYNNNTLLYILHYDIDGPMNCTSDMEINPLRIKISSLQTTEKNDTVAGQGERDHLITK
Chain of αvβ3 integrin (P06756 891-1048 partner limits assumed): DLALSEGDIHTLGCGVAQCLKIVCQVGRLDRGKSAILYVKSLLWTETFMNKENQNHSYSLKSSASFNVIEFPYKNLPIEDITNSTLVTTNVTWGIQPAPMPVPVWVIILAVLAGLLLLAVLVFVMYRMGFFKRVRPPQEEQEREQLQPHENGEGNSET
Chain of αvβ3 integrin (P05106 27-788): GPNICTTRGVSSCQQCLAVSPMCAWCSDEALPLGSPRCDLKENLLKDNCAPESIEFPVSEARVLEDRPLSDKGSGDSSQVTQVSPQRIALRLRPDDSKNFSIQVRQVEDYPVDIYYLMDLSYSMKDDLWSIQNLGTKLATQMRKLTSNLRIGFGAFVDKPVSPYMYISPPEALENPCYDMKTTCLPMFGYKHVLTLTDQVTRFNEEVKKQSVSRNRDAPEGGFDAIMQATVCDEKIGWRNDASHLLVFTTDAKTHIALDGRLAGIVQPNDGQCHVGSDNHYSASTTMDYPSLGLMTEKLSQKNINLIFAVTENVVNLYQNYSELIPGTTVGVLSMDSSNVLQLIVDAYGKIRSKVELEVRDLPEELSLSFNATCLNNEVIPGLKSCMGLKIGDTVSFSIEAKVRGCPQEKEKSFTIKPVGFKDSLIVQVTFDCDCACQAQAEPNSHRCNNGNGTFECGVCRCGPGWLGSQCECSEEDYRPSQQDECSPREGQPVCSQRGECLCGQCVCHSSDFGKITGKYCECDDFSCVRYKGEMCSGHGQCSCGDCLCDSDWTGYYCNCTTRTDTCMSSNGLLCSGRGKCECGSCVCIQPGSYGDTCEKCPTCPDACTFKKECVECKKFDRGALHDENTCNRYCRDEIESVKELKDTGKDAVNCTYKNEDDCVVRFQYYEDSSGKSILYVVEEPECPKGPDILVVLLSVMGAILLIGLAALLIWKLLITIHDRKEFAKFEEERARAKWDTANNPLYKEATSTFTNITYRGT

Row | Molecule | Kcat ([1]; 5-FC consumption (Table 5)) | Km ([1]; 5-FC consumption (Table 5)) | Kcat ([1]; 5-FU generation) | Km ([1]; 5-FU generation) | Kcat ([2]; cytosine consumption) [s⁻¹] | Km ([2]; cytosine consumption) | Kcat ([2]; uracil generation) [s⁻¹] | Km ([2]; uracil generation) | [Kcat/Km(5-FC)]/{[Kcat/Km(cytosine)] + [Kcat/Km(5-FC)]} [3] | binding with cells [4] | [Kcat/Km(5-FC)]/{[Kcat/Km(cytosine)] + [Kcat/Km(5-FC)]} [5] | Kcat/Km higher than that of the corresponding WT protein [1] | Kcat/Km lower than that of the corresponding WT protein [2] | relative substrate selectivity to 5-FC higher than the corresponding WT protein [3] | inhibition of binding capacity by RGDfv peptide (αvβ3 integrin; [10]) | inhibition of binding capacity by RGDfv peptide (αvβ3 integrin; [11]) | inhibition of binding by RGDfv peptide competition (U87MG, HUVEC cells) | internalization [4] | also measured
1 | EcCD_WT: E. coli. cytosine deaminase (EcCD), wild type, without target molecule (protein, EcCD_WT, E. coli. cytosine deaminase (EcCD), wild type, without target molecule) MSNNALQTIINARLPGEEGLWQIHLQDGKISAIDAQSGVMPITENSLDAEQGLVIPPFVEPHIHLDTTQTAGQPNWNQSGTLFEGIERWAERKALLTHDDVKQRAWQTLKWQIANGIQHVRTHVDVSDATLTALKAMLEVKQEVAPWIDLQIVAFPQEGILSYPNGEALLEEALRLRADVVGAIPHFEFTREYGVESLHKTFALAQKYDRLIDVHCDEIDDEQSRFVETVAALAHHEGMGARVTASHTTAMHSYNGAYTSRLFRLLKMSGINFVANPLVNIHLQGRFDTYPKRRGITRVKEMLESGINVCFGHDDVFDPWYPLGTANMLQVLHMGLHVCQLMGYGQINDGLNLITHHSARTLNLQDYGIAAGNSANLIILPAENGFDALRRQVPVRYSVRGGKVIASTQPAQTTVYLEQPEAIDYKRLEHHHHHH | 9.2 ± 0.8 s⁻¹ and 8.8 ± 0.8 s⁻¹ | 2800 µM and 2700 µM | 8.8 ± 0.9 s⁻¹ and 9.2 ± 0.6 s⁻¹ | 2900 ± 800 µM | 132.0 ± 5.0 | 1300 ± 100 µM | 157.3 ± 2.4 | 1600 µM and 1700 µM | 0.032 | do not have the ability of binding with U87MG and HUVEC cells | 0.027 |  |  |  |  |  |  |  | [Kcat/Km(5-FC)]/{[Kcat/Km(cytosine)] + [Kcat/Km(5-FC)]} ([3]; listed as EcCDWT): 0.033
2 | EcCD_D314A: E. coli. cytosine deaminase (EcCD) mutant D314A, without target molecule (protein, EcCD_D314A, E. coli. cytosine deaminase (EcCD) mutant D314A, without target molecule) MSNNALQTIINARLPGEEGLWQIHLQDGKISAIDAQSGVMPITENSLDAEQGLVIPPFVEPHIHLDTTQTAGQPNWNQSGTLFEGIERWAERKALLTHDDVKQRAWQTLKWQIANGIQHVRTHVDVSDATLTALKAMLEVKQEVAPWIDLQIVAFPQEGILSYPNGEALLEEALRLRADVVGAIPHFEFTREYGVESLHKTFALAQKYDRLIDVHCDEIDDEQSRFVETVAALAHHEGMGARVTASHTTAMHSYNGAYTSRLFRLLKMSGINFVANPLVNIHLQGRFDTYPKRRGITRVKEMLESGINVCFGHDAVFDPWYPLGTANMLQVLHMGLHVCQLMGYGQINDGLNLITHHSARTLNLQDYGIAAGNSANLIILPAENGFDALRRQVPVRYSVRGGKVIASTQPAQTTVYLEQPEAIDYKRLEHHHHHH | 35.1 ± 1.7 s⁻¹ and 36.2 ± 1.5 s⁻¹ | 3800 µM and 4000 µM | 36.2 ± 1.8 s⁻¹ and 35.4 ± 0.8 s⁻¹ | 3900 ± 600 µM | 22.3 ± 1.6 | 2600 ± 400 µM | 24.5 ± 1.1 | 3000 µM and 3100 µM | 0.558 and 0.535 | do not have the ability of binding with U87MG and HUVEC cells | 0.513 | about 3.1 times | about 12.5 times | about 17.4 times |  |  |  |  | 
3 | RGD4C-EcCD_WT: targeted prodrug enzyme fusion protein (SEQ ID NO: 19) (protein, RGD4C_EcCD_WT) MGCDCRGDCFCMSNNALQTIINARLPGEEGLWQIHLQDGKISAIDAQSGVMPITENSLDAEQGLVIPPFVEPHIHLDTTQTAGQPNWNQSGTLFEGIERWAERKALLTHDDVKQRAWQTLKWQIANGIQHVRTHVDVSDATLTALKAMLEVKQEVAPWIDLQIVAFPQEGILSYPNGEALLEEALRLRADVVGAIPHFEFTREYGVESLHKTFALAQKYDRLIDVHCDEIDDEQSRFVETVAALAHHEGMGARVTASHTTAMHSYNGAYTSRLFRLLKMSGINFVANPLVNIHLQGRFDTYPKRRGITRVKEMLESGINVCFGHDDVFDPWYPLGTANMLQVLHMGLHVCQLMGYGQINDGLNLITHHSARTLNLQDYGIAAGNSANLIILPAENGFDALRRQVPVRYSVRGGKVIASTQPAQTTVYLEQPEAIDYKRLEHHHHHH | 10.7 ± 0.5 s⁻¹ | 2300 ± 400 µM | 10.8 ± 0.6 s⁻¹ | 2300 ± 500 µM | 148.9 ± 4.7 | 1700 ± 200 µM | 141.7 ± 5.5 | 1500 ± 200 µM | 0.047 | have the ability of binding with U87MG and HUVEC cells |  |  |  |  | about 80% | about 30% | about 50% | will enter the internalization | Kcat [1, 6]: 10.9 ± 0.5 s⁻¹; Km [1, 6]: 2400 ± 400 µM; Kcat [1, 7]: 10.8 ± 0.5 s⁻¹; Km [1, 7]: 2400 ± 500 µM; Kcat [2, 8]: 143.9 ± 5.1 s⁻¹; Km [2, 8]: 1600 ± 200 µM; Kcat [2, 9]: 150.8 ± 4.4 s⁻¹; Km [2, 9]: 1700 ± 100 µM; [Kcat/Km(5-FC)]/{[Kcat/Km(cytosine)] + [Kcat/Km(5-FC)]} ([3]; listed as RGD4C- EcCDWT): 0.048
4 | RGD4C-EcCD_D314A: targeted prodrug enzyme fusion protein (SEQ ID NO: 20) (protein, RGD4C_EcCD_D314A) MGCDCRGDCFCMSNNALQTIINARLPGEEGLWQIHLQDGKISAIDAQSGVMPITENSLDAEQGLVIPPFVEPHIHLDTTQTAGQPNWNQSGTLFEGIERWAERKALLTHDDVKQRAWQTLKWQIANGIQHVRTHVDVSDATLTALKAMLEVKQEVAPWIDLQIVAFPQEGILSYPNGEALLEEALRLRADVVGAIPHFEFTREYGVESLHKTFALAQKYDRLIDVHCDEIDDEQSRFVETVAALAHHEGMGARVTASHTTAMHSYNGAYTSRLFRLLKMSGINFVANPLVNIHLQGRFDTYPKRRGITRVKEMLESGINVCFGHDAVFDPWYPLGTANMLQVLHMGLHVCQLMGYGQINDGLNLITHHSARTLNLQDYGIAAGNSANLIILPAENGFDALRRQVPVRYSVRGGKVIASTQPAQTTVYLEQPEAIDYKRLEHHHHHH | 38.6 ± 1.0 s⁻¹ and 39.1 ± 1.0 s⁻¹ | 3500 ± 200 µM | 39.4 ± 1.1 s⁻¹ and 38.4 ± 0.8 s⁻¹ | 3500 µM and 3400 µM | 17.7 ± 1.3 | 3000 µM and 2900 µM | 21.7 ± 4.8 | 3800 ± 1700 µM | 0.648 | have the ability of binding with U87MG and HUVEC cells |  | about 2.4 times | about 15.5 times | about 13.8 times | about 80% | about 30% | about 50% | will enter the internalization | [Kcat/Km(5-FC)]/{[Kcat/Km(cytosine)] + [Kcat/Km(5-FC)]} ([3]; listed as RGD4C- EcCD_D314A): 0.664
